Measured values taken from paper doi:10.1101/2020.05.30.125013.

B1: MlaB from Acinetobacter baumannii (natural protein)
chain: MVQYLNQELVVSGKIDFENAEQQYQAGLAIIKKQTSFPLIVDLKQLEHGNTLALAVLVQWLRQTPQKSGLHFKNVPEKMLKIIQACHLQEDLHLV

How the values were obtained:
[1] = biological target: MlaD from Acinetobacter baumannii (Acinetobacter baumannii) (UniProt V5V921); assay: cryo-EM structure
[2] = biological target: MlaF from Acinetobacter baumannii (Acinetobacter baumannii); assay: cryo-EM structure

Molecule	stoichiometry N [1]	percent of particles with MlaB bound to both MlaF copies [2]
MlaD from Acinetobacter baumannii (from UniProt V5V921 1-226) (natural protein)	6	–
B1	–	50%
